As a reminder, the Kd is a measure of binding affinity in units of concentration. A high value points to a looser complex.

Here are results for three substances from paper PMC6191154.

The assay has as its target labelled Vip3Aa protoxin (MST) (Bacillus thuringiensis (strain Bt9816C)). Kind of assay: MST; 10 nM labelled Vip3Aa kept constant, Sf-SR-C protein fragments titrated 0.3 nM to 10 μM, 20 min at RT; 25 mM Hepes pH 7.5, 150 mM NaCl, 0.05% Tween-20; 25 °C; fitted to the Hill equation; three independent experiments.

As to “GST-SR-F-2 (Sf-SR-C aa 139-320, the MAM domain) (domain or fragment)”, the Kd is 463 nM. Next, “Sf-CCP (CCP domain of Sf-SR-C (aa 20-80) with a His-tag) (domain or fragment)”: 2190 nM; “extracellular sequence of Sf-SR-C (aa 20-558) with a glutathione-S-transferase tag (GST-SR-C-N) (domain or fragment)”: 190 nM.
